Test results: publication PMC9482650, “Quantitative fragmentomics allow affinity mapping of interactomes” (Nature Communications, 2022)

How the values were obtained:
Experiment in all cases: holdup assay
Set-up in all cases: key: below the threshold = too weak to quantify, mostly under pKd 3.1 to 4
MAST2, Q6P0Q8 = molecular target: MAST2, Q6P0Q8
MPDZ_5, O75970 = molecular target: T1, MPDZ_5, O75970
T1 sequence (O75970 695-796, limits assumed, looked up): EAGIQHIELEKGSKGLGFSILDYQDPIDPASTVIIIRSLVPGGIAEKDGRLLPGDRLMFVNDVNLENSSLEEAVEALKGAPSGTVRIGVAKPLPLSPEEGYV

GRIP2_6, Q9C0E4 = molecular target: GRIP2_6, Q9C0E4
Chain of GRIP2_6, Q9C0E4 (Q9C0E4 648-740): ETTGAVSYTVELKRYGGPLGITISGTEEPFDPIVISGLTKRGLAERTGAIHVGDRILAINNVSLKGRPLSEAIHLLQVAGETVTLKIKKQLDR

Inadl_1, Q8NI35 = molecular target: Inadl_1, Q8NI35
Chain of Inadl_1, Q8NI35 (Q8NI35 113-229): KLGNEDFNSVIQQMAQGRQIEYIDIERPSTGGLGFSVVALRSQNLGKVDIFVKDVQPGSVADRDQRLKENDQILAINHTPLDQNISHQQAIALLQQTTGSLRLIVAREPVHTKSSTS

HTRA1, Q92743 = molecular target: HTRA1, Q92743
Chain of HTRA1, Q92743 (Q92743 360-477): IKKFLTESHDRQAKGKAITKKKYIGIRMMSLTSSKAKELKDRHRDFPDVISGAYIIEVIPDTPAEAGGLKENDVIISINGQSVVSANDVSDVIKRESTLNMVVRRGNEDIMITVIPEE

GORASP1, Q9BQQ3 = molecular target: GORASP1, Q9BQQ3
Chain of GORASP1, Q9BQQ3 (Q9BQQ3 1-208): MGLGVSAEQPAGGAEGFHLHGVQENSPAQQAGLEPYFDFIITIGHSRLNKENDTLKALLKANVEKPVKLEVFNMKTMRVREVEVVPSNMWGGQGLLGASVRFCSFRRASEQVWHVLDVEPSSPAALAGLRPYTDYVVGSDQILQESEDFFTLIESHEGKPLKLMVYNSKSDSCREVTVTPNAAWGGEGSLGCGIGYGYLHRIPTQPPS

LNX1_3, Q8TBB1 = molecular target: LNX1_3, Q8TBB1
Chain of LNX1_3, Q8TBB1 (Q8TBB1 500-596): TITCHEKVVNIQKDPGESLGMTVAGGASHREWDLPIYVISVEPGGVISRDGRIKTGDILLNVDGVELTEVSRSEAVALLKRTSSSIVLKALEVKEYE

GRIP2_4, Q9C0E4 = molecular target: GRIP2_4, Q9C0E4
Chain of GRIP2_4, Q9C0E4 (Q9C0E4 446-548): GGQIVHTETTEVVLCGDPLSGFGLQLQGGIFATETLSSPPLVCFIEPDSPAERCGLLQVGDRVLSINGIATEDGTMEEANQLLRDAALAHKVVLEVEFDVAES

LAP2, Q96RT1 = molecular target: LAP2, Q96RT1
Chain of LAP2, Q96RT1 (Q96RT1 other isoform, or with tags, fused parts or gaps): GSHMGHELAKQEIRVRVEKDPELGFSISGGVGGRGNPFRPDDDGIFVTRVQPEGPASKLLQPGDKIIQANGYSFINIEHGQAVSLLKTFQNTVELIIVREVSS

GRIP2_3, Q9C0E4 = molecular target: GRIP2_3, Q9C0E4
Chain of GRIP2_3, Q9C0E4 (Q9C0E4 238-339): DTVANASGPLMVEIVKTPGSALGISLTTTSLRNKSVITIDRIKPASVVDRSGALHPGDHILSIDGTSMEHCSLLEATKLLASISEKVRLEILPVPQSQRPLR

RHPN1, Q8TCX5 = molecular target: T2, RHPN1, Q8TCX5
T2 sequence (Q8TCX5 508-602, limits assumed, looked up): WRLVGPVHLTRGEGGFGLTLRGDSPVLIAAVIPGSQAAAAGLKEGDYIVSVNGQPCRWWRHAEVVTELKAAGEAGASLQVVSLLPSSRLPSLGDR

DFNB31_1, Q9P202 = molecular target: T3, DFNB31_1, Q9P202
T3 sequence (Q9P202 135-233, limits assumed, looked up): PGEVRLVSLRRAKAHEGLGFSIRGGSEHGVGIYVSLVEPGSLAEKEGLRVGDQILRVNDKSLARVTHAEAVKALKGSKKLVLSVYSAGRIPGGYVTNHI

DFNB31_3, Q9P202 = molecular target: T4, DFNB31_3, Q9P202
T4 sequence (Q9P202 811-907, limits assumed, looked up): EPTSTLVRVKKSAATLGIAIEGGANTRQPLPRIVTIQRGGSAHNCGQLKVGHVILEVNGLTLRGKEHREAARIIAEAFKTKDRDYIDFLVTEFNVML

DLG5_1, Q8TDM6 = molecular target: DLG5_1, Q8TDM6
Chain of DLG5_1, Q8TDM6 (Q8TDM6 617-713): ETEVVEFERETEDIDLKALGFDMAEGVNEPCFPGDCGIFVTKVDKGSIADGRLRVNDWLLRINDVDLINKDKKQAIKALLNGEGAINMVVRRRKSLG

GRIP2_5, Q9C0E4 = molecular target: GRIP2_5, Q9C0E4
Chain of GRIP2_5, Q9C0E4 (Q9C0E4 544-642): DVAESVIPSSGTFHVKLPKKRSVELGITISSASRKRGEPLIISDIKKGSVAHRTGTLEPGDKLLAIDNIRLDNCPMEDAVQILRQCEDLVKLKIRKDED

SCRIB_1, Q14160 = molecular target: SCRIB_1, Q14160
Chain of SCRIB_1, Q14160 (Q14160 718-814): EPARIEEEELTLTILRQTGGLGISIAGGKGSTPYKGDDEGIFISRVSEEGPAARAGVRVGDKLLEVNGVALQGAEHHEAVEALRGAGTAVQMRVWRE

APBA2_1, Q99767 = molecular target: T5, APBA2_1, Q99767
T5 sequence (Q99767 563-664, limits assumed, looked up): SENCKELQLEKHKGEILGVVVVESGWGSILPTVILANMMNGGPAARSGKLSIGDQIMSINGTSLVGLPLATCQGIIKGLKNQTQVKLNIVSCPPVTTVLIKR

NHERF4_4, Q86UT5 = molecular target: NHERF4_4, Q86UT5
Chain of NHERF4_4, Q86UT5 (Q86UT5 464-550): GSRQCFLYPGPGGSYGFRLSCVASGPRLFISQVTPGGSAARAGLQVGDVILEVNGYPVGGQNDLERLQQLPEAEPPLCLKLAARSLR

PARD3B_1, Q8TEW8 = molecular target: T6, PARD3B_1, Q8TEW8
T6 sequence (Q8TEW8 196-299, limits assumed, looked up): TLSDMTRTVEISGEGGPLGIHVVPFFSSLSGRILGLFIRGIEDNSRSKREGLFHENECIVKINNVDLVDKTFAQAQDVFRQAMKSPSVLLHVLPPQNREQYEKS

SHANK1, Q9Y566 = molecular target: T7, SHANK1, Q9Y566
T7 sequence (Q9Y566 658-767, limits assumed, looked up): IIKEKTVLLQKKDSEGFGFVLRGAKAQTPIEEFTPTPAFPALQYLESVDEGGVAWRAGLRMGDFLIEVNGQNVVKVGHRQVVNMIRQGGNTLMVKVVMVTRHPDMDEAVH

FRMPD1, Q5SYB0 = molecular target: T8, FRMPD1, Q5SYB0
T8 sequence (Q5SYB0 52-145, limits assumed, looked up): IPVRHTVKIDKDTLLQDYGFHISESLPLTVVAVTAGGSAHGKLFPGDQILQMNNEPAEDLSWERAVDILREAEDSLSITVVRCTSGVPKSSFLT

DLG2_2, Q15700 = molecular target: DLG2_2, Q15700
GOPC, Q9HD26 = molecular target: GOPC, Q9HD26
NHERF4_1, Q86UT5-2 = molecular target: NHERF4_1, Q86UT5-2
Chain of NHERF4_1, Q86UT5-2 (Q86UT5 other isoform, or with tags, fused parts or gaps): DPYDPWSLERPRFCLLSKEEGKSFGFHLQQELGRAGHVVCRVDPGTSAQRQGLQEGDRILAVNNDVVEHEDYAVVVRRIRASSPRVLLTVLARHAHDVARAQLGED

MAGI1_1, Q96QZ7 = molecular target: MAGI1_1, Q96QZ7
Chain of MAGI1_1, Q96QZ7 (Q96QZ7 1-106): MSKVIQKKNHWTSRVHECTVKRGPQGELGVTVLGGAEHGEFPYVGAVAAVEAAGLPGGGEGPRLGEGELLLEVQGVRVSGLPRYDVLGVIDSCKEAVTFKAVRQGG

TJP3_3, O95049 = molecular target: T9, TJP3_3, O95049
T9 sequence (O95049 375-456, limits assumed, looked up): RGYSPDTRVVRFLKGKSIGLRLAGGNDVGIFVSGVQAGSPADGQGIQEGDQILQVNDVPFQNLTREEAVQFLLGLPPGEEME

DLG2_3, Q15700 = molecular target: DLG2_3, Q15700
Inadl_6, Q8NI35 = molecular target: Inadl_6, Q8NI35
Chain of Inadl_6, Q8NI35 (Q8NI35 1058-1167): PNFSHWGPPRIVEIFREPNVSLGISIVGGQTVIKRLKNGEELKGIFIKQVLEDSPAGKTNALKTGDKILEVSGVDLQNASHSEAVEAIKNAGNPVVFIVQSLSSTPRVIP

[1] = plain residues with an end cap or a label only (N-terminal biotin on a linker: ttds)
[2] = plain residues with an end cap or a label only (N-terminal biotin on a linker: ahx)

Chain of MAST2, Q6P0Q8 (Q6P0Q8 1099-1202): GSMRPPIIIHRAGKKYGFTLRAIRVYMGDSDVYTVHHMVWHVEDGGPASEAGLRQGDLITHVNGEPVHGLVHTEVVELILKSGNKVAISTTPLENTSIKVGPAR

B1: ARHGAP17, Q68EM7 (peptide)
chain: IDNDTESTAL
pKd (MAST2, Q6P0Q8; [1]): below the threshold | pKd (MPDZ_5, O75970; [1]): below the threshold | pKd (GRIP2_6, Q9C0E4; [1]): below the threshold | pKd (Inadl_1, Q8NI35; [1]): below the threshold | pKd (HTRA1, Q92743; [1]): 3.65 | pKd (GORASP1, Q9BQQ3; [1]): below the threshold | pKd (LNX1_3, Q8TBB1; [1]): below the threshold | pKd (GRIP2_4, Q9C0E4; [1]): below the threshold | pKd (LAP2, Q96RT1; [1]): below the threshold | pKd (GRIP2_3, Q9C0E4; [1]): below the threshold | pKd (RHPN1, Q8TCX5; [1]): 4.47 | pKd (DFNB31_1, Q9P202; [1]): 3.84 | pKd (DFNB31_3, Q9P202; [1]): below the threshold | pKd (DLG5_1, Q8TDM6; [1]): below the threshold | pKd (GRIP2_5, Q9C0E4; [1]): below the threshold | pKd (SCRIB_1, Q14160; [1]): 4.91 | pKd (APBA2_1, Q99767; [1]): below the threshold | pKd (NHERF4_4, Q86UT5; [1]): below the threshold | pKd (PARD3B_1, Q8TEW8; [1]): 3.93 | pKd (SHANK1, Q9Y566; [1]): 5.53 | pKd (FRMPD1, Q5SYB0; [1]): below the threshold | pKd (DLG2_2, Q15700; [1]): below the threshold | pKd (GOPC, Q9HD26; [1]): 3.86 | pKd (NHERF4_1, Q86UT5-2; [1]): 4.16 | pKd (MAGI1_1, Q96QZ7; [1]): below the threshold | pKd (TJP3_3, O95049; [1]): below the threshold | pKd (DLG2_3, Q15700; [1]): below the threshold | pKd (Inadl_6, Q8NI35; [1]): 3.91

B2: ABCC4, O15439 (peptide)
chain: STLTIFETAL
pKd (MAST2, Q6P0Q8; [1]): 5.92 | pKd (MPDZ_5, O75970; [1]): below the threshold | pKd (GRIP2_6, Q9C0E4; [1]): below the threshold | pKd (Inadl_1, Q8NI35; [1]): 3.53 | pKd (HTRA1, Q92743; [1]): below the threshold | pKd (GORASP1, Q9BQQ3; [1]): below the threshold | pKd (LNX1_3, Q8TBB1; [1]): below the threshold | pKd (GRIP2_4, Q9C0E4; [1]): below the threshold | pKd (LAP2, Q96RT1; [1]): 4.57 | pKd (GRIP2_3, Q9C0E4; [1]): below the threshold | pKd (RHPN1, Q8TCX5; [1]): 4.87 | pKd (DFNB31_1, Q9P202; [1]): 4.63 | pKd (DFNB31_3, Q9P202; [1]): below the threshold | pKd (DLG5_1, Q8TDM6; [1]): below the threshold | pKd (GRIP2_5, Q9C0E4; [1]): below the threshold | pKd (SCRIB_1, Q14160; [1]): 6.07 | pKd (APBA2_1, Q99767; [1]): below the threshold | pKd (NHERF4_4, Q86UT5; [1]): 4.24 | pKd (PARD3B_1, Q8TEW8; [1]): 3.94 | pKd (SHANK1, Q9Y566; [1]): 5.1 | pKd (FRMPD1, Q5SYB0; [1]): below the threshold | pKd (DLG2_2, Q15700; [1]): 4.15 | pKd (GOPC, Q9HD26; [1]): 4.52 | pKd (NHERF4_1, Q86UT5-2; [1]): 4.61 | pKd (MAGI1_1, Q96QZ7; [1]): below the threshold | pKd (TJP3_3, O95049; [1]): below the threshold | pKd (DLG2_3, Q15700; [1]): 3.98 | pKd (Inadl_6, Q8NI35; [1]): 4.89

B3: MYO18A, Q92614 (peptide)
chain: TEAKLTETNA
pKd (MAST2, Q6P0Q8; [2]): below the threshold | pKd (MPDZ_5, O75970; [2]): below the threshold | pKd (GRIP2_6, Q9C0E4; [2]): below the threshold | pKd (Inadl_1, Q8NI35; [2]): below the threshold | pKd (HTRA1, Q92743; [2]): below the threshold | pKd (GORASP1, Q9BQQ3; [2]): below the threshold | pKd (LNX1_3, Q8TBB1; [2]): below the threshold | pKd (GRIP2_4, Q9C0E4; [2]): below the threshold | pKd (LAP2, Q96RT1; [2]): below the threshold | pKd (GRIP2_3, Q9C0E4; [2]): below the threshold | pKd (RHPN1, Q8TCX5; [2]): below the threshold | pKd (DFNB31_1, Q9P202; [2]): below the threshold | pKd (DFNB31_3, Q9P202; [2]): below the threshold | pKd (DLG5_1, Q8TDM6; [2]): below the threshold | pKd (GRIP2_5, Q9C0E4; [2]): below the threshold | pKd (SCRIB_1, Q14160; [2]): below the threshold | pKd (APBA2_1, Q99767; [2]): below the threshold | pKd (NHERF4_4, Q86UT5; [2]): below the threshold | pKd (PARD3B_1, Q8TEW8; [2]): below the threshold | pKd (SHANK1, Q9Y566; [2]): below the threshold | pKd (FRMPD1, Q5SYB0; [2]): below the threshold | pKd (DLG2_2, Q15700; [2]): below the threshold | pKd (GOPC, Q9HD26; [2]): below the threshold | pKd (NHERF4_1, Q86UT5-2; [2]): below the threshold | pKd (MAGI1_1, Q96QZ7; [2]): below the threshold | pKd (TJP3_3, O95049; [2]): below the threshold | pKd (DLG2_3, Q15700; [2]): below the threshold | pKd (Inadl_6, Q8NI35; [2]): below the threshold
